Measurements taken from PMC9865026 (Pathogens, 2022).

Target: A/New Caledonia/20/1999 (NC H1N1) recombinant hemagglutinin (HA) (Influenza A virus A/New …, UniProt Q6WG00, strain)
Assay: ELISA
Settings: both partners purified

B1: FI6 human IgG1 (antibody, V domains shown)
VH: QVQLVESGGGVVQPGRSLRLSCAASGFTFSTYAMHWVRQAPGKGLEWVAVISYDANYKYYADSVKGRFTISRDNSKNTLYLQMNSLRAEDTAVYYCAKDSQLRSLLYFEWLSQGYFDYWGQGTLVTVSS
VL: not shown
notes: also called native human IgG1; source: HEK-293, transfected (pTT5), purified from cell culture supernatant (MabSelect); copies: 2 + 2
- binding result: binds
